Laboratory results reported in the supplement of paper PMC11246515.
± gives the standard deviation of the averaged measurements.

Test: total protein half-life in vivo (active degradation + dilution); higher = more stable protein
[1] = E. coli NCM3722 delta-clpP delta-lon delta-hslV, growth: N-lim chemostat, doubling time 6 h
[2] = E. coli NCM3722 delta-clpP, growth: N-lim chemostat, doubling time 6 h
[3] = E. coli NCM3722 delta-hslV, growth: N-lim chemostat, doubling time 6 h
[4] = E. coli NCM3722 delta-lon, growth: N-lim chemostat, doubling time 6 h
[5] = E. coli NCM3722 delta-smpB, growth: N-lim chemostat, doubling time 6 h
[6] = wild type E. coli NCM3722, growth: C-lim chemostat, doubling time 3 h
[7] = wild type E. coli NCM3722, growth: C-lim chemostat, doubling time 6 h
[8] = wild type E. coli NCM3722, growth: N-lim chemostat, doubling time 6 h
[9] = wild type E. coli NCM3722, growth: N-lim chemostat, doubling time 12 h
[10] = wild type E. coli NCM3722, growth: P-lim chemostat, doubling time 6 h
[11] = wild type E. coli NCM3722, growth: P-lim chemostat, doubling time 12 h
[12] = wild type E. coli NCM3722, growth: C-lim chemostat, doubling time 12 h

Row | Sequence | total protein half-life in vivo [1] [h] | total protein half-life in vivo [2] [h] | total protein half-life in vivo [3] [h] | total protein half-life in vivo [4] [h] | total protein half-life in vivo [5] [h] | total protein half-life in vivo [6] [h] | total protein half-life in vivo [7] [h] | total protein half-life in vivo [8] [h] | total protein half-life in vivo [9] [h] | total protein half-life in vivo [10] [h] | total protein half-life in vivo [11] [h] | total protein half-life in vivo [12] [h]
1 | MARTKLKFRLHRAVIVLFCLALLVALMQGASWFSQNHQRQRNPQLEELARTLARQVTLNVAPLMRTDSPDEKRIQAILDQLTDESRILDAGVYDEQGDLIARSGESVEVRDRLALDGKKAGGYFNQQIVEPIAGKNGPLGYLRLTLDTHTLATEAQQVDNTTNILRLMLLLSLAIGVVLTRTLLQGKRTRWQQSPFLLTASKPVPEEEESEKKE [P0AGC7] | 4.45 ± 0.17 | 4.93 ± 0.059 | 4.9 ± 1 | 4.57 ± 0.81 | 4.34 ± 0.23 | 3.05 ± 0.13 | 6.19 ± 1.3 | 3.69 ± 0.5 | 6.81 ± 0.24 | 5.23 ± 0.067 | 9.34 ± 0.24 | –
2 | MKLGFIGLGIMGTPMAINLARAGHQLHVTTIGPVADELLSLGAVSVETARQVTEASDIIFIMVPDTPQVEEVLFGENGCTKASLKGKTIVDMSSISPIETKRFARQVNELGGDYLDAPVSGGEIGAREGTLSIMVGGDEAVFERVKPLFELLGKNITLVGGNGDGQTCKVANQIIVALNIEAVSEALLFASKAGADPVRVRQALMGGFASSRILEVHGERMIKRTFNPGFKIALHQKDLNLALQSAKALALNLPNTATCQELFNTCAANGGSQLDHSALVQALELMANHKLA | 4.94 ± 0.21 | 3.37 ± 1.2 | – | 3.23 | – | – | – | – | – | 2.4 ± 2 | 2.16 | –
3 | MNPTRYARICEMLARRQPDLTVCMEQVHKPHNVSAIIRTADAVGVHEVHAVWPGSRMRTMASAAAGSNSWVQVKTHRTIGDAVAHLKGQGMQILATHLSDNAVDFREIDYTRPTCILMGQEKTGITQEALALADQDIIIPMIGMVQSLNVSVASALILYEAQRQRQNAGMYLRENSMLPEAEQQRLLFEGGYPVLAKVAKRKGLPYPHVNQQGEIEADADWWATMQAAG [P0AGJ2] | – | 5.55 | 5.14 ± 0.28 | 5.86 | 4.84 ± 0.18 | 2.85 ± 0.62 | 5.7 ± 0.66 | 5.5 ± 0.66 | 10 ± 0.54 | 5.8 ± 0.23 | 12.5 ± 0.089 | 10.7 ± 1.5
4 | MPWIQLKLNTTGANAEDLSDALMEAGAVSITFQDTHDTPVFEPLPGETRLWGDTDVIGLFDAETDMNDVVAILENHPLLGAGFAHKIEQLEDKDWEREWMDNFHPMRFGERLWICPSWRDVPDENAVNVMLDPGLAFGTGTHPTTSLCLQWLDSLDLTGKTVIDFGCGSGILAIAALKLGAAKAIGIDIDPQAIQASRDNAERNGVSDRLELYLPKDQPEEMKADVVVANILAGPLRELAPLISVLPVSGGLLGLSGILASQAESVCEAYADSFALDPVVEKEEWCRITGRKN [P0A8T1] | 5.8 ± 2.4 | 4.39 ± 0.31 | 5.13 ± 1.4 | 4.36 ± 0.61 | 3.91 ± 0.063 | 3.16 ± 0.55 | 4.89 ± 0.5 | 4.39 ± 0.22 | 6.89 ± 0.88 | 5.37 ± 0.1 | 10.86 ± 0.1 | 9.36 ± 0.56
5 | MWSEYSLEVVDAVARNGSFSAAAQELHRVPSAVSYTVRQLEEWLAVPLFERRHRDVELTAAGAWFLKEGRSVVKKMQITRQQCQQIANGWRGQLAIAVDNIVRPERTRQMIVDFYRHFDDVELLVFQEVFNGVWDALSDGRVELAIGATRAIPVGGRYAFRDMGMLSWSCVVASHHPLALMDGPFSDDTLRNWPSLVREDTSRTLPKRITWLLDNQKRVVVPDWESSATCISAGLCIGMVPTHFAKPWLNEGKWVALELENPFPDSACCLTWQQNDMSPALTWLLEYLGDSETLNKEWLREPEETPATGD [P0ACR2] | 5.69 ± 0.2 | 5.02 ± 0.17 | 4.85 ± 1.3 | – | 4.6 ± 0.3 | 2.594 ± 0.0057 | > 8 | 4.8 ± 0.11 | 8.76 ± 0.09 | 5.31 ± 0.39 | 8.51 ± 0.64 | 10.5 ± 0.11
6 | MRNKNIIMLLMSSLILSGCGPQPENKESQQQQPSTPTEQQVLAAQQAAIKEAEQSAAAAKALAQQEVQQYSDKQALQGRLQEAPTFARAAKAKATHIANPGTARYQQFDDNPVKQVAQNPLATFSLDVDTGSYANVRRFLNQGLLPPPDAVRVEEIVNYFPSDWDIKDKQSIPASKPIPFAMRYELAPAPWNEQRTLLKVDILAKDRKSEELPASNLVFLIDTSGSMISDERLPLIQSSLKLLVKELREQDNIAIVTYAGDSRIALPSISGSHKAEINAAIDSLDAEGSTNGGAGLELAYQQATKGFIKGGINRILLATDGDFNVGIDDPKSIESMVKKQRESGVTLSTFGVGNSNYNEAMMVRIADVGNGNYSYIDTLSEAQKVLNSEMRQMLITVAKDVKAQIEFNPAWVTEYRQIGYEKRQLRVEHFNNDNVDAGDIGAGKHITLLFELTLNGQKASIDKLRYAPDNKLAKSDKTKELAWLKIRWKYPQGKESQLVEFPLGPTINAPSEDMRFRAAVAAYGQKLRGSEYLNNTSWQQIKQWAQQAKGEDPQGYRAEFIRLIELADGVTDISQ | – | 4.02 ± 0.33 | – | – | 2.8393 ± 0.00061 | – | – | – | – | – | – | –
7 | MSNIWSKEETLWSFALYGTAVGAGTLFLPIQLGSAGAVVLFITALVAWPLTYWPHKALCQFILSSKTSAGEGITGAVTHYYGKKIGNLITTLYFIAFFVVVLIYAVAITNSLTEQLAKHMVIDLRIRMLVSLGVVLILNLIFLMGRHATIRVMGFLVFPLIAYFLFLSIYLVGSWQPDLLTTQVEFNQNTLHQIWISIPVMVFAFSHTPIISTFAIDRREKYGEHAMDKCKKIMKVAYLIICISVLFFVFSCLLSIPPSYIEAAKEEGVTILSALSMLPNAPAWLSISGIIVAVVAMSKSFLGTYFGVIEGATEVVKTTLQQVGVKKSRAFNRALSIMLVSLITFIVCCINPNAISMIYAISGPLIAMILFIMPTLSTYLIPALKPWRSIGNLITLIVGILCVSVMFFS | – | – | – | – | 5.13 | – | – | – | – | – | – | –
8 | MSRFIPIELHHASRLLNHGPTVLITSFDEQSQRRNIMAAAWSMPVEFEPPRVAIVVDKSTWTRELIEHNGKFGIVIPGVAATNWTWAVGSVSGRDEDKFNCYGIPVVRGPVFGLPLVEEKCLAWMECRLLPATSAQEEYDTLFGEVVSAAADARVFVEGRWQFDDDKLNTLHHLGAGTFVTSGKRVTAG | 5.07 ± 0.36 | 4.49 ± 0.06 | 4.12 ± 0.3 | 4.25 ± 0.39 | 4.19 ± 0.066 | 2.96 ± 0.065 | 4.15 ± 0.89 | 4.27 ± 0.46 | 6.92 ± 0.15 | 5.45 ± 0.67 | 10.4 ± 0.57 | 9.97 ± 0.71
9 | METKNLTIGERIRYRRKNLKHTQRSLAKALKISHVSVSQWERGDSEPTGKNLFALSKVLQCSPTWILFGDEDKQPTPPVEKPVALSPKELELLELFNALPESEQDTQLAEMRARVKNFNKLFEELLKARQRTNKR | 6.79 ± 1 | 5.32 ± 0.38 | 5.9 ± 0.15 | 6.27 ± 0.067 | 5.86 ± 0.56 | 3.21 ± 0.043 | 5.25 ± 0.77 | 4.971 ± 0.028 | 10.2 ± 2.7 | 5.33 ± 1 | 10.7 ± 0.66 | 6.96 ± 1.7
10 | MTQPMPGKPAEDAENELDIRGLFRTLWAGKLWIIGMGLAFALIALAYTFFARQEWSSTAITDRPTVNMLGGYYSQQQFLRNLDVRSNMASADQPSVMDEAYKEFVMQLASWDTRREFWLQTDYYKQRMVGNSKADAALLDEMINNIQFIPGDFTRAVNDSVKLIAETAPDANNLLRQYVAFASQRAASHLNDELKGAWAARTIQMKAQVKRQEEVAKAIYDRRMNSIEQALKIAEQHNISRSATDVPAEELPDSEMFLLGRPMLQARLENLQAVGPAFDLDYDQNRAMLNTLNVGPTLDPRFQTYRYLRTPEEPVKRDSPRRAFLMIMWGIVGGLIGAGVALTRRCSK [P0AG00] | 6.85 ± 0.38 | 6.17 ± 0.56 | 6.71 ± 1.2 | 6.55 ± 0.092 | 6.22 ± 0.16 | 3.48 ± 0.46 | 6.38 ± 0.37 | 6.6 ± 1.2 | 12.9 ± 1.9 | 6.31 ± 0.24 | 13.3 ± 0.56 | –
11 | MKKYLALALIAPLLISCSTTKKGDTYNEAWVKDTNGFDILMGQFAHNIENIWGFKEVVIAGPKDYVKYTDQYQTRSHINFDDGTITIETIAGTEPAAHLRRAIIKTLLMGDDPSSVDLYSDVDDITISKEPFLYGQVVDNTGQPIRWEGRASNFADYLLKNRLKSRSNGLRIIYSVTINMVPNHLDKRAHKYLGMVRQASRKYGVDESLILAIMQTESSFNPYAVSRSDALGLMQVVQHTAGKDVFRSQGKSGTPSRSFLFDPASNIDTGTAYLAMLNNVYLGGIDNPTSRRYAVITAYNGGAGSVLRVFSNDKIQAANIINTMTPGDVYQTLTTRHPSAESRRYLYKVNTAQKSYRRR [P0C066] | 6.29 ± 0.53 | – | 6.24 ± 0.8 | – | 4.92 ± 0.2 | 3.27 ± 0.4 | 5.3 ± 0.52 | 6.34 ± 0.94 | 12.6 ± 2.2 | 7.12 | – | 9.66 ± 1.5
